# Measured values as given in the supplement of paper PMC10065799, “High-throughput profiling of sequence recognition by tyrosine kinases and SH2 domains using bacterial peptide display” (eLife, 2023).
# How the values were obtained:
# c-Src SH2 = assay: SH2 binding enrichment of the phosphorylated peptide, bacterial display (enrichment ratio); higher = better substrate or ligand; peptides without Tyr show the background
# Grb2 SH2 = Grb2 SH2 (UniProt P62993); assay: as above
# SHP2-C SH2 = assay: as above
# MERTK = MERTK (UniProt Q12866); assay: phosphorylation enrichment, bacterial display (enrichment ratio); higher = better substrate or ligand; peptides without Tyr show the background
# Hck = Hck (UniProt P08631); assay: as above
# AncSZ = assay: as above
# EPHB2 = EPHB2 (UniProt P29323); assay: as above
# c-Abl (mouse) = assay: as above
# Fyn = Fyn (UniProt P06241); assay: as above
# c-Src = assay: as above
# Jak2 = Jak2 (UniProt O60674); assay: as above
# EPHB1 = EPHB1 (UniProt P54762); assay: as above
# FGFR3 = FGFR3 (UniProt P22607); assay: as above
# FGFR1 = FGFR1 (UniProt P11362); assay: as above
# Fes = Fes (UniProt P07332); assay: as above
# Fer (mouse) = assay: as above
# 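Throughout, for SH2 binding enrichment of the phosphorylated peptide, bacterial display: peptide library displayed on the E. coli surface as eCPX fusions, selected cells deep-sequenced, score is each peptide's frequency after selection divided by its frequency in the input.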
# 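Throughout, for phosphorylation enrichment, bacterial display: 11-residue human phosphosite peptides and single-mutation variants displayed on the E. coli surface, counted by deep sequencing, each peptide's frequency after selection divided by its frequency in the unselected input library; frequency after pTyr selection over input frequency; kinase dosed for 20-30% of maximal phosphorylation in three min.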
# Grb2 SH2, sequence (P62993 whole entry, looked up): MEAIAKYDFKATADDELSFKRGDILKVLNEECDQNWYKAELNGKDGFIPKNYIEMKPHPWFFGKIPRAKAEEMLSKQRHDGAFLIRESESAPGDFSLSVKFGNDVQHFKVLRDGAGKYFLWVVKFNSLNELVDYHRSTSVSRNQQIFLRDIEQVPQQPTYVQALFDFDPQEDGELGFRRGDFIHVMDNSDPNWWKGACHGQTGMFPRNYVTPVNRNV
# Jak2, sequence (O60674 whole entry, looked up): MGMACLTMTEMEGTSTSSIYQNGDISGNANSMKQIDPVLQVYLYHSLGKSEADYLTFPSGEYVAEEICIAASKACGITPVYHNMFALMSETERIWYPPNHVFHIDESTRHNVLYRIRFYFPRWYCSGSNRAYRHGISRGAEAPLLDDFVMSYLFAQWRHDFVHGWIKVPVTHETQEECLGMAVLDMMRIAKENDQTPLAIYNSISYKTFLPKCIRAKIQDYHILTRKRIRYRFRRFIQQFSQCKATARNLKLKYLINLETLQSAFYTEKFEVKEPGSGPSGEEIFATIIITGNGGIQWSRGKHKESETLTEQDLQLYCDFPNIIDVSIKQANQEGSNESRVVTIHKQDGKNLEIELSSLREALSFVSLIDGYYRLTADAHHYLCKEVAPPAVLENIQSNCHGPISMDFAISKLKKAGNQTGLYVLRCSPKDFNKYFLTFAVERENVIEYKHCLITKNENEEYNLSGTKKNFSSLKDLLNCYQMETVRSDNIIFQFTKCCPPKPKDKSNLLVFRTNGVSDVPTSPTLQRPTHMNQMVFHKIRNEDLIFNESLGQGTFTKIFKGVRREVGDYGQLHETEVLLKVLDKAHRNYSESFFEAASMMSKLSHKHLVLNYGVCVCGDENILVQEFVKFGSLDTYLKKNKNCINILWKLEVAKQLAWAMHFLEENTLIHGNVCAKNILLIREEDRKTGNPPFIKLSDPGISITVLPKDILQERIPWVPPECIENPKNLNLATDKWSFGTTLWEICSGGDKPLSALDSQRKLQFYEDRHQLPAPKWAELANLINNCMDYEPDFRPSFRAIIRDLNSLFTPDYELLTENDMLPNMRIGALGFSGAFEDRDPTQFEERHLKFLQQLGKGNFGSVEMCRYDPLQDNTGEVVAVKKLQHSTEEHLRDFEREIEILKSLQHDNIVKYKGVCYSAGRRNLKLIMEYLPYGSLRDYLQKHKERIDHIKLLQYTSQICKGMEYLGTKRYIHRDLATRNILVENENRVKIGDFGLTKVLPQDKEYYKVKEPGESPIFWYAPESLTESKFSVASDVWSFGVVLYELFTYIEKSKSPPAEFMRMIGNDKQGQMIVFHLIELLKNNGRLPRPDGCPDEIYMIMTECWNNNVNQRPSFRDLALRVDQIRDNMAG
# Fes, sequence (P07332 whole entry, looked up): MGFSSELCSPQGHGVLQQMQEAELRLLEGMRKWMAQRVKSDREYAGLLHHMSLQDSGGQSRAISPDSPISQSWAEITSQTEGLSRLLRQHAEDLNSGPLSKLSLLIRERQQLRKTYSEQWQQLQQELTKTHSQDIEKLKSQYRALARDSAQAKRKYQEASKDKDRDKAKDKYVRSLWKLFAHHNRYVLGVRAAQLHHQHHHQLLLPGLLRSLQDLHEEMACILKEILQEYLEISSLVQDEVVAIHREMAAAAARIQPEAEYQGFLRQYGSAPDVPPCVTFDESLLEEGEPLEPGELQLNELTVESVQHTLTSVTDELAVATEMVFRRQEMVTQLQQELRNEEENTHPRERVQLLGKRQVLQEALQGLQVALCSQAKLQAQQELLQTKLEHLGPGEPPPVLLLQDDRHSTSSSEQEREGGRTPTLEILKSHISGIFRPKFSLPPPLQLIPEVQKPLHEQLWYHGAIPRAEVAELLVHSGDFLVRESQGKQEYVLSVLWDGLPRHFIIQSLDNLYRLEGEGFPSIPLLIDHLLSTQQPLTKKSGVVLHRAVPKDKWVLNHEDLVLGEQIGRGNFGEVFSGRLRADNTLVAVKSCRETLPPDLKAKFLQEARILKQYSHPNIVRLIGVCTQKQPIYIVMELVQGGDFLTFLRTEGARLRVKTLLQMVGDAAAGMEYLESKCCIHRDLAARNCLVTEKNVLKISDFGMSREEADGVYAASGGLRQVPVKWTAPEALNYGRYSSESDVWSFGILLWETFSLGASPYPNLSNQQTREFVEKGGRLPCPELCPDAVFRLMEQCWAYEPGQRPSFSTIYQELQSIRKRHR
# MERTK, sequence (Q12866 whole entry, looked up): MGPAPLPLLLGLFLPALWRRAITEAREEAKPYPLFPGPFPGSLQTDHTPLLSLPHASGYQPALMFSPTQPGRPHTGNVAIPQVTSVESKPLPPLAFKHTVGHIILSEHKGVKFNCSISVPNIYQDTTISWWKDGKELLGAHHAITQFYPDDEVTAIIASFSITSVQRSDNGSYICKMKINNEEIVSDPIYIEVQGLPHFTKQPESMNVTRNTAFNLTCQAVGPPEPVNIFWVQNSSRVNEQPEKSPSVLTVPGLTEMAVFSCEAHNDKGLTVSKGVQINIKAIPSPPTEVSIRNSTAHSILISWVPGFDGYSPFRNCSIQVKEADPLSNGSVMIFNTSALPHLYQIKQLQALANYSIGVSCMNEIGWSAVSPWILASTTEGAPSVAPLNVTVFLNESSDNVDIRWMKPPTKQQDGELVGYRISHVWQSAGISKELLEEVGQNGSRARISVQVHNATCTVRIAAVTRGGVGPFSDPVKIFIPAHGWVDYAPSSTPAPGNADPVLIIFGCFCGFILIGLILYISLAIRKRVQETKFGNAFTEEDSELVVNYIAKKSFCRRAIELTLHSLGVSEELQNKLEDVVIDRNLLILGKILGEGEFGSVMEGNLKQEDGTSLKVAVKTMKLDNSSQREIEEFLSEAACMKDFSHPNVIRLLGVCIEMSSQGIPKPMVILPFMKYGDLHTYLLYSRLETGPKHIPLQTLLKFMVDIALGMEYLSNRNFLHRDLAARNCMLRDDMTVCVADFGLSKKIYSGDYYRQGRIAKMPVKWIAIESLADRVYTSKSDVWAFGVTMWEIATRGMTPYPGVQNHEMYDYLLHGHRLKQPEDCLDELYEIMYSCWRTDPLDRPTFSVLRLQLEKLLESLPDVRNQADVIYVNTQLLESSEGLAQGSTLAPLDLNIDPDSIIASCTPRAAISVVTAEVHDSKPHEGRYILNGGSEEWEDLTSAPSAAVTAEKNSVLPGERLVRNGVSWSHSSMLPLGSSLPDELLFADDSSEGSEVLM
# FGFR3, sequence (P22607 whole entry, looked up): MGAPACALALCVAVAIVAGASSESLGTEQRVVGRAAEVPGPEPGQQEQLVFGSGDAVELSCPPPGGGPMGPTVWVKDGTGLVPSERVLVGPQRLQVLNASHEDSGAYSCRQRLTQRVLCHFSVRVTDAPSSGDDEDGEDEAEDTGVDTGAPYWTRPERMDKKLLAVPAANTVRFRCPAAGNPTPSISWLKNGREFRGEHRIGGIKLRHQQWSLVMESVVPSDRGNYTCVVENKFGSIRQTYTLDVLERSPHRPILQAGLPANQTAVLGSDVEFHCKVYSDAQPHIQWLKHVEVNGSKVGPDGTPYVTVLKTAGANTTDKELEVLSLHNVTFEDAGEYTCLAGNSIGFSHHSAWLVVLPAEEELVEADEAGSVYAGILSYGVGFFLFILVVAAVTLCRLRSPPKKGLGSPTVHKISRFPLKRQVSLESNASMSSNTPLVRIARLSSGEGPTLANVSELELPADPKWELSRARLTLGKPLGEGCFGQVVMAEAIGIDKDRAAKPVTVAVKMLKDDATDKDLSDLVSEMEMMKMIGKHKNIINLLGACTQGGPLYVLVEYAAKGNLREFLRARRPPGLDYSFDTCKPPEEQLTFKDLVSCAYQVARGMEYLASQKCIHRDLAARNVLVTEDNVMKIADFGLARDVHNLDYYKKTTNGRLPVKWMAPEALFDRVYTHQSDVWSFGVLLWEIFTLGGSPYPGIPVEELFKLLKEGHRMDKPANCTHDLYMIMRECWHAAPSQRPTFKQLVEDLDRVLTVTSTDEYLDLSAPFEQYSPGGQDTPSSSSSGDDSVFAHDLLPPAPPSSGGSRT
# EPHB2, sequence (P29323 whole entry, looked up): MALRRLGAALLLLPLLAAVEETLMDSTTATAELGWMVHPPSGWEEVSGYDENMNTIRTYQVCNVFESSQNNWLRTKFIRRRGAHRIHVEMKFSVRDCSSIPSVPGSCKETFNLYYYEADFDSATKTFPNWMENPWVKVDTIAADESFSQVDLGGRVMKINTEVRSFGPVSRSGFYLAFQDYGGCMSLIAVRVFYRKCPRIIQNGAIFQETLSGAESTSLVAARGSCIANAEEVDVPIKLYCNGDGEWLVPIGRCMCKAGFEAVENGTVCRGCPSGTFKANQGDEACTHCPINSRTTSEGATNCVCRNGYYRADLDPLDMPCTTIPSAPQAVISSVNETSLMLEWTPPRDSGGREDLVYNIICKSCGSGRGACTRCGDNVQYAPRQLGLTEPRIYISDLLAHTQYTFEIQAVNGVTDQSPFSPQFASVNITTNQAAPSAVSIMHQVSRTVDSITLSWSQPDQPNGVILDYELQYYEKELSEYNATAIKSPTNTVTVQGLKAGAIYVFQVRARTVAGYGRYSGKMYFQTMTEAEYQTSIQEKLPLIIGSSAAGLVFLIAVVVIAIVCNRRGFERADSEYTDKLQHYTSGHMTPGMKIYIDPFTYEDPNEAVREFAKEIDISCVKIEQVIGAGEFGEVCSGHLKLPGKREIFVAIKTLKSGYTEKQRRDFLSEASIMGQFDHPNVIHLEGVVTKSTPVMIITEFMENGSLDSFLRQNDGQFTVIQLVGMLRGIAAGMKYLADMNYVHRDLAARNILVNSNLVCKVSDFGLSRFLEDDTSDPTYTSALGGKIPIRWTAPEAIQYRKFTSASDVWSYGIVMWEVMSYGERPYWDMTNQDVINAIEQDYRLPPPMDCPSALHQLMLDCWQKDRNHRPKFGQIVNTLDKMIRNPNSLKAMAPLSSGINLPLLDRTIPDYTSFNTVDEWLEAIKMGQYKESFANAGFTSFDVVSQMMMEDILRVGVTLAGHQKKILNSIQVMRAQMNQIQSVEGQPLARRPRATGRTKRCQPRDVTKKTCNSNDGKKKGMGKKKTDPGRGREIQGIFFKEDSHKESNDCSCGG
sequence,measurement,setting,value
NAGAFYALSTL [FLVCR2_Y325],SH2 binding enrichment,c-Src SH2,0.592
same,SH2 binding enrichment,Grb2 SH2,0.979
same,SH2 binding enrichment,SHP2-C SH2,0.837
same,phosphorylation enrichment,MERTK,4.76
same,phosphorylation enrichment,Hck,0.752
same,phosphorylation enrichment,AncSZ,0.784
same,phosphorylation enrichment,EPHB2,0.784
same,phosphorylation enrichment,c-Abl (mouse),0.608
same,phosphorylation enrichment,Fyn,0.567
same,phosphorylation enrichment,c-Src,1.23
same,phosphorylation enrichment,Jak2,0.751
same,phosphorylation enrichment,EPHB1,0.822
same,phosphorylation enrichment,FGFR3,0.649
same,phosphorylation enrichment,FGFR1,0.61
same,phosphorylation enrichment,Fes,0.764
same,phosphorylation enrichment,Fer (mouse),3.19
AGIVVYNIIGW [MYH7_Y588_D587V],SH2 binding enrichment,c-Src SH2,0.61
same,SH2 binding enrichment,Grb2 SH2,0.792
same,SH2 binding enrichment,SHP2-C SH2,0.669
same,phosphorylation enrichment,MERTK,1.17
same,phosphorylation enrichment,Hck,2.35
same,phosphorylation enrichment,AncSZ,1.14
same,phosphorylation enrichment,EPHB2,0.633
same,phosphorylation enrichment,c-Abl (mouse),1.51
same,phosphorylation enrichment,Fyn,2.31
same,phosphorylation enrichment,c-Src,2.14
same,phosphorylation enrichment,Jak2,1.37
same,phosphorylation enrichment,EPHB1,0.919
same,phosphorylation enrichment,FGFR3,0.807
same,phosphorylation enrichment,FGFR1,0.506
same,phosphorylation enrichment,Fes,1.57
same,phosphorylation enrichment,Fer (mouse),0.726
YDGGCYEQLFV [MC4R_Y41_S36Y],SH2 binding enrichment,c-Src SH2,0.598
same,SH2 binding enrichment,Grb2 SH2,0.742
same,SH2 binding enrichment,SHP2-C SH2,0.623
same,phosphorylation enrichment,MERTK,1.17
same,phosphorylation enrichment,Hck,3.08
same,phosphorylation enrichment,AncSZ,2.51
same,phosphorylation enrichment,EPHB2,0.968
same,phosphorylation enrichment,c-Abl (mouse),1.01
same,phosphorylation enrichment,Fyn,2.04
same,phosphorylation enrichment,c-Src,2.71
same,phosphorylation enrichment,Jak2,1.21
same,phosphorylation enrichment,EPHB1,1.24
same,phosphorylation enrichment,FGFR3,1.45
same,phosphorylation enrichment,FGFR1,1.18
same,phosphorylation enrichment,Fes,1.38
same,phosphorylation enrichment,Fer (mouse),11.4
VDSGVYAVPPP [BCAR1_Y410],SH2 binding enrichment,c-Src SH2,0.434
same,SH2 binding enrichment,Grb2 SH2,0.863
same,SH2 binding enrichment,SHP2-C SH2,0.624
same,phosphorylation enrichment,MERTK,9.97
same,phosphorylation enrichment,Hck,8.02
same,phosphorylation enrichment,AncSZ,2.04
same,phosphorylation enrichment,EPHB2,19.6
same,phosphorylation enrichment,c-Abl (mouse),20.9
same,phosphorylation enrichment,Fyn,8.7
same,phosphorylation enrichment,c-Src,4.94
same,phosphorylation enrichment,Jak2,0.709
same,phosphorylation enrichment,EPHB1,7.54
same,phosphorylation enrichment,FGFR3,1.01
same,phosphorylation enrichment,FGFR1,1.2
same,phosphorylation enrichment,Fes,0.795
same,phosphorylation enrichment,Fer (mouse),5.46
MCITRYERESQ [PRNP_Y218_Q217R],SH2 binding enrichment,c-Src SH2,0.705
same,SH2 binding enrichment,Grb2 SH2,1.07
same,SH2 binding enrichment,SHP2-C SH2,0.784
same,phosphorylation enrichment,MERTK,0.457
same,phosphorylation enrichment,Hck,0.469
same,phosphorylation enrichment,AncSZ,1.03
same,phosphorylation enrichment,EPHB2,0.528
same,phosphorylation enrichment,c-Abl (mouse),0.466
same,phosphorylation enrichment,Fyn,0.404
same,phosphorylation enrichment,c-Src,0.404
same,phosphorylation enrichment,Jak2,0.769
same,phosphorylation enrichment,EPHB1,0.429
same,phosphorylation enrichment,FGFR3,0.541
same,phosphorylation enrichment,FGFR1,0.433
same,phosphorylation enrichment,Fes,0.813
same,phosphorylation enrichment,Fer (mouse),0.488
STILLYHIMAW [GPR143_Y157],SH2 binding enrichment,c-Src SH2,0.634
same,SH2 binding enrichment,Grb2 SH2,0.876
same,SH2 binding enrichment,SHP2-C SH2,0.899
same,phosphorylation enrichment,MERTK,4.05
same,phosphorylation enrichment,Hck,1.44
same,phosphorylation enrichment,AncSZ,1.59
same,phosphorylation enrichment,EPHB2,2.88
same,phosphorylation enrichment,c-Abl (mouse),1.23
same,phosphorylation enrichment,Fyn,0.766
same,phosphorylation enrichment,c-Src,1.01
same,phosphorylation enrichment,Jak2,1.89
same,phosphorylation enrichment,EPHB1,4.83
same,phosphorylation enrichment,FGFR3,2.88
same,phosphorylation enrichment,FGFR1,2.8
same,phosphorylation enrichment,Fes,1.64
same,phosphorylation enrichment,Fer (mouse),1.02
EHEALYLEADL [CENPF_Y1920],SH2 binding enrichment,c-Src SH2,0.57
same,SH2 binding enrichment,Grb2 SH2,0.845
same,SH2 binding enrichment,SHP2-C SH2,0.56
same,phosphorylation enrichment,MERTK,0.77
same,phosphorylation enrichment,Hck,0.715
same,phosphorylation enrichment,AncSZ,1.66
same,phosphorylation enrichment,EPHB2,0.84
same,phosphorylation enrichment,c-Abl (mouse),0.938
same,phosphorylation enrichment,Fyn,0.653
same,phosphorylation enrichment,c-Src,0.986
same,phosphorylation enrichment,Jak2,1.12
same,phosphorylation enrichment,EPHB1,0.57
same,phosphorylation enrichment,FGFR3,1.8
same,phosphorylation enrichment,FGFR1,1.73
same,phosphorylation enrichment,Fes,1.34
same,phosphorylation enrichment,Fer (mouse),1.2
SQPASYQRRLL [PPIG_Y320],SH2 binding enrichment,c-Src SH2,0.428
same,SH2 binding enrichment,Grb2 SH2,0.729
same,SH2 binding enrichment,SHP2-C SH2,0.54
same,phosphorylation enrichment,MERTK,0.316
same,phosphorylation enrichment,Hck,0.253
same,phosphorylation enrichment,AncSZ,0.394
same,phosphorylation enrichment,EPHB2,0.337
same,phosphorylation enrichment,c-Abl (mouse),0.301
same,phosphorylation enrichment,Fyn,0.53
same,phosphorylation enrichment,c-Src,0.365
same,phosphorylation enrichment,Jak2,0.35
same,phosphorylation enrichment,EPHB1,0.313
same,phosphorylation enrichment,FGFR3,0.396
same,phosphorylation enrichment,FGFR1,0.472
same,phosphorylation enrichment,Fes,0.451
same,phosphorylation enrichment,Fer (mouse),0.286
KGEDFYSVTCH [FHL1_Y149_C150S],SH2 binding enrichment,c-Src SH2,0.47
same,SH2 binding enrichment,Grb2 SH2,0.688
same,SH2 binding enrichment,SHP2-C SH2,0.706
same,phosphorylation enrichment,MERTK,4.71
same,phosphorylation enrichment,Hck,3.19
same,phosphorylation enrichment,AncSZ,1.47
same,phosphorylation enrichment,EPHB2,0.632
same,phosphorylation enrichment,c-Abl (mouse),0.899
same,phosphorylation enrichment,Fyn,5.87
same,phosphorylation enrichment,c-Src,3.96
same,phosphorylation enrichment,Jak2,1.13
same,phosphorylation enrichment,EPHB1,0.806
same,phosphorylation enrichment,FGFR3,0.942
same,phosphorylation enrichment,FGFR1,0.849
same,phosphorylation enrichment,Fes,1.35
same,phosphorylation enrichment,Fer (mouse),3.47
PSSNLYYRWLT [CNGA3_Y168],SH2 binding enrichment,c-Src SH2,0.816
same,SH2 binding enrichment,Grb2 SH2,1.32
same,SH2 binding enrichment,SHP2-C SH2,1.59
same,phosphorylation enrichment,MERTK,12.4
same,phosphorylation enrichment,Hck,8.15
same,phosphorylation enrichment,AncSZ,1.89
same,phosphorylation enrichment,EPHB2,4.17
same,phosphorylation enrichment,c-Abl (mouse),7.69
same,phosphorylation enrichment,Fyn,3.84
same,phosphorylation enrichment,c-Src,4.28
same,phosphorylation enrichment,Jak2,7.82
same,phosphorylation enrichment,EPHB1,3.17
same,phosphorylation enrichment,FGFR3,9.96
same,phosphorylation enrichment,FGFR1,13.5
same,phosphorylation enrichment,Fes,1.4
same,phosphorylation enrichment,Fer (mouse),6.19
RTLSEYARRHV [RERE_Y1259_P1262R],SH2 binding enrichment,c-Src SH2,0.448
same,SH2 binding enrichment,Grb2 SH2,0.826
same,SH2 binding enrichment,SHP2-C SH2,0.567
same,phosphorylation enrichment,MERTK,0.572
same,phosphorylation enrichment,Hck,0.461
same,phosphorylation enrichment,AncSZ,0.613
same,phosphorylation enrichment,EPHB2,0.373
same,phosphorylation enrichment,c-Abl (mouse),2.14
same,phosphorylation enrichment,Fyn,0.338
same,phosphorylation enrichment,c-Src,0.446
same,phosphorylation enrichment,Jak2,0.596
same,phosphorylation enrichment,EPHB1,0.353
same,phosphorylation enrichment,FGFR3,0.494
same,phosphorylation enrichment,FGFR1,0.393
same,phosphorylation enrichment,Fes,0.629
same,phosphorylation enrichment,Fer (mouse),0.404
LSSETYVKSFT [F5_Y2149_M2148T_YF],SH2 binding enrichment,c-Src SH2,0.587
same,SH2 binding enrichment,Grb2 SH2,0.798
same,SH2 binding enrichment,SHP2-C SH2,0.74
same,phosphorylation enrichment,MERTK,0.379
same,phosphorylation enrichment,Hck,0.858
same,phosphorylation enrichment,AncSZ,0.969
same,phosphorylation enrichment,EPHB2,1.7
same,phosphorylation enrichment,c-Abl (mouse),0.595
same,phosphorylation enrichment,Fyn,0.665
same,phosphorylation enrichment,c-Src,0.512
same,phosphorylation enrichment,Jak2,1.06
same,phosphorylation enrichment,EPHB1,0.789
same,phosphorylation enrichment,FGFR3,0.735
same,phosphorylation enrichment,FGFR1,0.743
same,phosphorylation enrichment,Fes,1.14
same,phosphorylation enrichment,Fer (mouse),0.511
GSRGKYSSGFC [ATM_Y332_R337C],SH2 binding enrichment,c-Src SH2,0.938
same,SH2 binding enrichment,Grb2 SH2,1.25
same,SH2 binding enrichment,SHP2-C SH2,1.16
same,phosphorylation enrichment,MERTK,0.51
same,phosphorylation enrichment,Hck,0.431
same,phosphorylation enrichment,AncSZ,0.495
same,phosphorylation enrichment,EPHB2,0.406
same,phosphorylation enrichment,c-Abl (mouse),0.611
same,phosphorylation enrichment,Fyn,0.464
same,phosphorylation enrichment,c-Src,0.472
same,phosphorylation enrichment,Jak2,0.545
same,phosphorylation enrichment,EPHB1,0.441
same,phosphorylation enrichment,FGFR3,0.539
same,phosphorylation enrichment,FGFR1,0.446
same,phosphorylation enrichment,Fes,0.559
same,phosphorylation enrichment,Fer (mouse),0.401
ERLLDYTRTVQ [INPP5E_Y439],SH2 binding enrichment,c-Src SH2,0.39
same,SH2 binding enrichment,Grb2 SH2,0.777
same,SH2 binding enrichment,SHP2-C SH2,0.584
same,phosphorylation enrichment,MERTK,0.365
same,phosphorylation enrichment,Hck,0.439
same,phosphorylation enrichment,AncSZ,0.945
same,phosphorylation enrichment,EPHB2,0.451
same,phosphorylation enrichment,c-Abl (mouse),0.853
same,phosphorylation enrichment,Fyn,0.495
same,phosphorylation enrichment,c-Src,0.493
same,phosphorylation enrichment,Jak2,1.06
same,phosphorylation enrichment,EPHB1,0.663
same,phosphorylation enrichment,FGFR3,0.665
same,phosphorylation enrichment,FGFR1,0.518
same,phosphorylation enrichment,Fes,1.06
same,phosphorylation enrichment,Fer (mouse),0.544
YDGKEYDPVEA [MAPRE2_Y167],SH2 binding enrichment,c-Src SH2,0.604
same,SH2 binding enrichment,Grb2 SH2,0.912
same,SH2 binding enrichment,SHP2-C SH2,0.502
same,phosphorylation enrichment,MERTK,0.497
same,phosphorylation enrichment,Hck,0.567
same,phosphorylation enrichment,AncSZ,1.21
same,phosphorylation enrichment,EPHB2,0.637
same,phosphorylation enrichment,c-Abl (mouse),0.935
same,phosphorylation enrichment,Fyn,0.556
same,phosphorylation enrichment,c-Src,0.645
same,phosphorylation enrichment,Jak2,1.22
same,phosphorylation enrichment,EPHB1,0.772
same,phosphorylation enrichment,FGFR3,0.836
same,phosphorylation enrichment,FGFR1,0.535
same,phosphorylation enrichment,Fes,1.42
same,phosphorylation enrichment,Fer (mouse),0.621
GGDAVYTNGTI [RFX2_Y82_A86T],SH2 binding enrichment,c-Src SH2,0.434
same,SH2 binding enrichment,Grb2 SH2,0.91
same,SH2 binding enrichment,SHP2-C SH2,0.597
same,phosphorylation enrichment,MERTK,0.391
same,phosphorylation enrichment,Hck,1.19
same,phosphorylation enrichment,AncSZ,0.778
same,phosphorylation enrichment,EPHB2,0.488
same,phosphorylation enrichment,c-Abl (mouse),0.74
same,phosphorylation enrichment,Fyn,1.17
same,phosphorylation enrichment,c-Src,1.32
same,phosphorylation enrichment,Jak2,0.667
same,phosphorylation enrichment,EPHB1,1.39
same,phosphorylation enrichment,FGFR3,0.613
same,phosphorylation enrichment,FGFR1,0.392
same,phosphorylation enrichment,Fes,0.836
same,phosphorylation enrichment,Fer (mouse),0.464
LFNQDYPIHCV [GATM_Y227_S231C_YF],SH2 binding enrichment,c-Src SH2,0.407
same,SH2 binding enrichment,Grb2 SH2,0.446
same,SH2 binding enrichment,SHP2-C SH2,0.806
same,phosphorylation enrichment,MERTK,0.729
same,phosphorylation enrichment,Hck,0.555
same,phosphorylation enrichment,AncSZ,1.43
same,phosphorylation enrichment,EPHB2,0.889
same,phosphorylation enrichment,c-Abl (mouse),1.11
same,phosphorylation enrichment,Fyn,0.777
same,phosphorylation enrichment,c-Src,0.33
same,phosphorylation enrichment,Jak2,1.17
same,phosphorylation enrichment,EPHB1,1.32
same,phosphorylation enrichment,FGFR3,2.52
same,phosphorylation enrichment,FGFR1,4.54
same,phosphorylation enrichment,Fes,1.49
same,phosphorylation enrichment,Fer (mouse),1.03
